Blank lines part the entries; values can stand above or below the molecule they belong to.
What was measured:
human CCR4 (human) = human CCR4 (human) (UniProt P51679); test: cell-based or functional assay
integrin α4β7 = target: T1, integrin α4β7 (human, UniProt P13612 34-1032; P26010 20-798); test: cell adhesion to MAdCAM-1 transfectants, elution with 0.5mM EDTA
T1 construct: whole, on cells; also called a4p7
T1 sequence (P13612 34-1032, chain 1 of 2): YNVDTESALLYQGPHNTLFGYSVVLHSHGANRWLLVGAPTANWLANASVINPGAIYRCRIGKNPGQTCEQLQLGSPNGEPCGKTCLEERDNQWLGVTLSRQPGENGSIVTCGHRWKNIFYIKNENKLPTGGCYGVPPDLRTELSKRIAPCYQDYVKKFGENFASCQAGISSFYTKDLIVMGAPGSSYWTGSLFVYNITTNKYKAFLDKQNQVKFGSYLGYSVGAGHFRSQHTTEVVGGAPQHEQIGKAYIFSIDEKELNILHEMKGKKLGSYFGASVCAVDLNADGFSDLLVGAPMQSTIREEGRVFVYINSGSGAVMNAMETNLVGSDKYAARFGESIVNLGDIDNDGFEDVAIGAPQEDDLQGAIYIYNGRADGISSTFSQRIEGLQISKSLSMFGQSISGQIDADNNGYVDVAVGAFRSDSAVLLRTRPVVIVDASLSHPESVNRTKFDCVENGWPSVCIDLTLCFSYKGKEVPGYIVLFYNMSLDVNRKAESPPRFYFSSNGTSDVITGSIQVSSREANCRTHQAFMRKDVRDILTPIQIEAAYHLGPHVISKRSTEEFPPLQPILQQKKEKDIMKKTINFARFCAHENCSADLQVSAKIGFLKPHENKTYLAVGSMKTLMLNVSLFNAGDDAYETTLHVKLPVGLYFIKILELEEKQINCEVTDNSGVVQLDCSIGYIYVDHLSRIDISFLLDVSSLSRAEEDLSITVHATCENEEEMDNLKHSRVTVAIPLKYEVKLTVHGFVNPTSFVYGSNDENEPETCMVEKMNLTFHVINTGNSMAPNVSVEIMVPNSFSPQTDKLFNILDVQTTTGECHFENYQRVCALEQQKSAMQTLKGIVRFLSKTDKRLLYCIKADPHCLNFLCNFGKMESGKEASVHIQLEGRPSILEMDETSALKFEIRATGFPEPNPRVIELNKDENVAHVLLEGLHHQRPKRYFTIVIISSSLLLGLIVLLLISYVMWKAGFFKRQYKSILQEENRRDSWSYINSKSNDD
T1 sequence (P26010 20-798, chain 2 of 2): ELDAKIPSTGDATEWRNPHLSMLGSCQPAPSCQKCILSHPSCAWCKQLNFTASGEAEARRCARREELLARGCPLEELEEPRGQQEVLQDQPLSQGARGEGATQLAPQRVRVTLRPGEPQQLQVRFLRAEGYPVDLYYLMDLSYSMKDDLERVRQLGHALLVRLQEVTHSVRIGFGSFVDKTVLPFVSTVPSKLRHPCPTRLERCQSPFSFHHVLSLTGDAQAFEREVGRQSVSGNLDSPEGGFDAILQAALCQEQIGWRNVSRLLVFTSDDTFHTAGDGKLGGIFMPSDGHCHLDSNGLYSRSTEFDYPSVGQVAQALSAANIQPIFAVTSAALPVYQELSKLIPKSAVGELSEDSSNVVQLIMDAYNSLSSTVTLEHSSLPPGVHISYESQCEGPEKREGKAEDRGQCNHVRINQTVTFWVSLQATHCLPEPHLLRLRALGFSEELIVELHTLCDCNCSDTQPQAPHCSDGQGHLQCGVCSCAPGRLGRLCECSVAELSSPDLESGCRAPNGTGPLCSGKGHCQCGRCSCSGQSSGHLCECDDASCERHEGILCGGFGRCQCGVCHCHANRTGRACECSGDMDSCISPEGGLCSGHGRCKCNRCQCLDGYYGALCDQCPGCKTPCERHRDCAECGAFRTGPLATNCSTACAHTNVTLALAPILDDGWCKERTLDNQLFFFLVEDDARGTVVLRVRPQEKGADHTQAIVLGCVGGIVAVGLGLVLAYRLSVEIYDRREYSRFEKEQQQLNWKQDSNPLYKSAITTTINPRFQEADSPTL

Chain of human CCR4 (human) (P51679 whole entry): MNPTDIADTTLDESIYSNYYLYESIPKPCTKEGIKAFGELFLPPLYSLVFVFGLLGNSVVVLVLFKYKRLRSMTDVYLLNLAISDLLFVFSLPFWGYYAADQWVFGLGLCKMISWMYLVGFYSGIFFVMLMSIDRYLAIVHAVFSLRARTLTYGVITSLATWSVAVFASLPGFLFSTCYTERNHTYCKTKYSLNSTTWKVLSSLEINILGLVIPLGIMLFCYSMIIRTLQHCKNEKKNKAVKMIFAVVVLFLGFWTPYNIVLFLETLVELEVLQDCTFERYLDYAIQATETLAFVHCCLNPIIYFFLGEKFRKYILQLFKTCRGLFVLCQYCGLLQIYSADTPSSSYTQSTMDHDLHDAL

- rapid adhesion of α4β7(-) memory CD4+ lymphocytes to immobilized ICAM-1 (static assay, TARC at 1 µM) (% of input cells) (human CCR4 (human)): < 50
Molecule: human TARC (thymus and activation-regulated chemokine) (from UniProt Q92583 24-94) (ligand)

- binding result (integrin α4β7): binds
B1: murine MAdCAM-1 (receptor, UniProt Q61826 22-405, looked up)
chain: QSFQVNPPESEVAVAMGTSLQITCSMSCDEGVARVHWRGLDTSLGSVQTLPGSSILSVRGMLSDTGTPVCVGSCGSRSFQHSVKILVYAFPDQLVVSPEFLVPGQDQVVSCTAHNIWPADPNSLSFALLLGEQRLEGAQALEPEQEEEIQEAEGTPLFRMTQRWRLPSLGTPAPPALHCQVTMQLPKLVLTHRKEIPVLQSQTSPKPPNTTSAEPYILTSSSTAEAVSTGLNITTLPSAPPYPKLSPRTLSSEGPCRPKIHQDLEAGWELLCEASCGPGVTVRWTLAPGDLATYHKREAGAQAWLSVLPPGPMVEGWFQCRQDPGGEVTNLYVPGQVTPNSSSTVVLWIGSLVLGLLALVFLAYRLWKCYRPGPRPDTSSCTHL
notes: whole, on cells; CHO cells transfected with murine MAdCAM-1; also called mucosal addressin cell adhesion molecule

— patent publication US20020019341A1 (Stanford University, published 2002)
